Measured values published in article PMC7395093.
Substitutions are numbered along the chain they refer to.

B1: N-terminally V5 epitope-tagged WT (full-length) [mouse] / C-terminal GFP-tagged Atg16L1 WT (full-length) [mouse] (parent)
chain 1: MTSEMESSLEVSFSSSCAVSGASGCLPPARSRIFKIIVIGDSNVGKTCLTYRFCAGRFPDRTEATIGVDFRERAVDIDGERIKIQLWDTAGQERFRKSMVQHYYRNVHAVVFVYDMTNMASFHSLPAWIEECKQHLLANDIPRILVGNKCDLRSAIQVPTDLAQKFADTHSMPLFETSAKNPNDNDHVEAIFMTLAHKLKSHKPLMLSQLPDNRISLKPETKPAVTCWC
chain 2: MSSGLRAADFPRWKRHIAEELRRRDRLQRQAFEEIILQYTKLLEKSDLHSVLTQKLQAEKHDMPNRHEISPGHDGAWNDSQLQEMAQLRIKHQEELTELHKKRGELAQLVIDLNNQMQQKDKEIQMNEAKISEYLQTISDLETNCLDLRTKLQDLEVANQTLKDEYDALQITFTALEEKLRKTTEENQELVTRWMAEKAQEANRLNAENEKDSRRRQARLQKELAEAAKEPLPVEQDDDIEVIVDETSDHTEETSPVRAVSRAATKRLSQPAGGLLDSITNIFGRRSVSSIPVPQDIMDTHPASGKDVRVPTTASYVFDAHDGEVNAVQFSPGSRLLATGGMDRRVKLWEAFGDKCEFKGSLSGSNAGITSIEFDSAGAYLLAASNDFASRIWTVDDYRLRHTLTGHSGKVLSAKFLLDNARIVSGSHDRTLKLWDLRSKVCIKTVFAGSSCNDIVCTEQCVMSGHFDKKIRFWDIRSESVVREMELLGKITALDLNPERTELLSCSRDDLLKVIDLRTNAVKQTFSAPGFKCGSDWTRVVFSPDGSYVAAGSAEGSLYVWSVLTGKVEKVLSKQHSSSINAVAWAPSGLHVVSVDKGSRAVLWAQP
B2: N-terminally V5 epitope-tagged (full-length) [mouse] / C-terminal GFP-tagged Atg16L1 WT (full-length) [mouse] (parent)
chain 1: B1 chain 1 with Q92L
chain 2: B1 chain 2

Variants of: B1
Assay: GFP co-immunoprecipitation, western blot band quantification
Conditions: with C-terminal GFP-tagged Atg16L1 WT (full-length) [mouse]; Overexpression was done in HEK293 cells; read off a plot
chain 1 T47N showed a response of 0.6 a.u.

Variants of: B2
Assay: as above
Conditions: with C-terminal GFP-tagged Atg16L1 WT (full-length) [mouse]; Overexpression was done in HEK293 cells; read off a plot
For chain 1 F70A, the response was 0.04 a.u.
With chain 1 F70E the response was 0.32 a.u.

Same assay, conditions: with N-terminally V5 epitope-tagged Rab33B Q92L (full-length) [mouse]; Overexpression was done in HEK293 cells; read off a plot
With chain 2 A202W the response was 0.06 a.u.
Variant chain 2 K198A has a response of 0.13 a.u.
Variant chain 2 N206K has a response of 0.12 a.u.
